Laboratory results reported in US20080194027, “Compositions, methods and kits based on small nuclear RNAs” (Trustees of the University of Pennsylvania, published 2008).

B1: HSUR5-60 (nt 60-114) (ssRNA)
RNA: AUUUUUG
B2: HSUR5-60 Sm U1C (ssRNA)
RNA: ACUUUUG
modifications: [none]
B3: HSUR5-60 Sm U3C (ssRNA)
RNA: AUUCUUG
modifications: [none]
B4: HSUR5-60 Sm U2C (ssRNA)
RNA: AUCUUUG
modifications: [none]
B5: HSUR5-60 Sm U4C (ssRNA)
RNA: AUUUCUG
modifications: [none]

Experiments:
[1] = molecular target: T1, snRNP total proteins (TPs; seven Sm proteins plus U1 snRNP proteins) (Homo sapiens, UniProt P14678;P62314;P62316;P62318;P62304;P62306;P62308;P08621;P09012;P09234 …); test: pulldown; Y12 IP; phosphorothioate interference at U92, C86, G109, none in Sm site; settings: tags: anti-TMG immunopurified from HeLa; label: 32P-UTP
[2] = molecular target: T1, snRNP total proteins (TPs; seven Sm …); test: pulldown; Sm core assembly, Y12 IP; settings: tags: anti-TMG immunopurified from HeLa; label: 32P-UTP

Binder	binding result [1]	binding result [2]
B1	binds	–
B2	–	binds
B3	–	binds
B4	–	binds
B5	–	binds
